Experimental data taken from patent US20140179604A1 (U S A REPRESENTED BY THE DEPARTMENT OF VETERANS AFFAIRS, published 2014).
Non-standard residues stand in square brackets, D forms with d. No end group written: not given here. *: point of attachment. Desaminotyrosyl = O=C(CCc1ccc(O)cc1)*; NMeY = CN[C@@H](Cc1ccc(O)cc1)C(=O)O; Nle = CCCC[C@H](N)C(=O)O; Orn = NCCC[C@H](N)C(=O)O; Abu = CC[C@H](N)C(=O)O; Aoc = NCCCCCCCC(=O)O; Ava = NCCCCC(=O)O

T1: GHRH receptor (membrane receptors of human anterior pituitary cells) (human) (UniProt Q02643)
T1 sequence (looked up): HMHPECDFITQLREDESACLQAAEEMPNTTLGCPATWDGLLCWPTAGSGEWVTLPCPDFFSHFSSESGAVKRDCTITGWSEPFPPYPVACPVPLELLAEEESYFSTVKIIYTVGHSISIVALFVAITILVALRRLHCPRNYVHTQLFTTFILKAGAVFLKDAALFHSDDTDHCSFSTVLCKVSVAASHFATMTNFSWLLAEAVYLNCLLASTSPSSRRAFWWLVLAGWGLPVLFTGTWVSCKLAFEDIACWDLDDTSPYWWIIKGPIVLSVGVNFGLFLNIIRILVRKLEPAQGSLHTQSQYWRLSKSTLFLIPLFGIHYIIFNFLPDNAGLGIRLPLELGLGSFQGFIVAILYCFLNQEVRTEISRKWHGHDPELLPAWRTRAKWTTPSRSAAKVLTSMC

T2: GHRH receptor (membrane receptors of human anterior pituitary cells) (human, UniProt Q02643 23-423)
T2 construct: whole, on cells; Native receptor in a membrane fraction of purchased normal human pituitaries, not intact cells; also called hGHRH receptor; human pituitary membrane homogenates
T2 sequence (looked up): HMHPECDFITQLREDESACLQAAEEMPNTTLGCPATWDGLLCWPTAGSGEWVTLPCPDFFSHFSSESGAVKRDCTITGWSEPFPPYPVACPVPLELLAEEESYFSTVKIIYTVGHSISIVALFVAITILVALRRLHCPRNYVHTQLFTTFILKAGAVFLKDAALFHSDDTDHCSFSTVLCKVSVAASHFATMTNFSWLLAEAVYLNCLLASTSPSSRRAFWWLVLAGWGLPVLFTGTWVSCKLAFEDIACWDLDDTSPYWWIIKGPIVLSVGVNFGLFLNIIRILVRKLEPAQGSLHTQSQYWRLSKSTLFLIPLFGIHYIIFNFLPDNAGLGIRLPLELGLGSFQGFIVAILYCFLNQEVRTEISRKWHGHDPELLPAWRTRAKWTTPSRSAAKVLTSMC


Assays:
[1] = biological target: T1, GHRH receptor (membrane receptors of human anterior pituitary cells) (human); experiment: competition with 125I-JV-1-42, human pituitary membranes
[2] = biological target: T2, GHRH receptor (membrane receptors of …); experiment: competition with 125I-[His1,Nle27]hGHRH(1-32)NH2, human pituitary membranes
Text: Normal human pituitary was purchased from the National Hormone and Peptide Program (UCLA Medical Center, Torrance, Calif.).

[3] = biological target: T2, GHRH receptor (membrane receptors of …); experiment: competition with 125I-JV-1-42, human pituitary membranes
Text: Normal human pituitaries were purchased from the National Hormone and Peptide Program (A. F. Parlow, Los Angeles, County Harbor-UCLA Medical Center, Torrance, Calif.).

| Binder | IC50 [1] [nM] | Relative affinity (Binding potency) vs JI-38 [1] [JI-38 = 1] | IC50 [2] [nM] | Relative affinity (Binding potency) compared to JI-38 [2] [JI-38 = 1] | Relative affinity (Binding potency) compared to hGHRH(1-29) [2] | IC50 [3] [nM] | Relative affinity (Binding potency) vs JI-38 [3] [JI-38 = 1] |
| --- | --- | --- | --- | --- | --- | --- | --- |
| YADAIFTNSYRKVLGQLSARKLLQDIMSRQ (peptide, from a related filing, N-Me-Tyr^1; Orn^12; Abu^15; Orn^21; Nle^27; Gab^30 (in place of Gln^30); C-terminal -NH-CH3) [P-27415 [N-Me-Tyr^1, Orn^12, Abu^15, Orn^21, Nle^27, Gab^30]hGHRH(1-30)NH-CH3] | 3.02 | 1.44 | – | – | – | – | – |
| [NMeY]ADAIFTNSYR[Orn]VL[Abu]QLSAR[Orn]LLQDI[Nle]DR[Aoc]-NH2 (peptide, from a related filing, N-terminus assumed; SMILES CCCC[C@H](NC(=O)[C@@H](NC(=O)[C@H](CC(=O)O)NC(=O)[C@H](CCC(N)=O)NC(=O)[C@H](CC(C)C)NC(=O)[C@H](CC(C)C)NC(=O)[C@H](CCCN)NC(=O)[C@H](CCCNC(=N)N)NC(=O)[C@H](C)NC(=O)[C@H](CO)NC(=O)[C@H](CC(C)C)NC(=O)[C@H](CCC(N)=O)NC(=O)[C@H](CC)NC(=O)[C@H](CC(C)C)NC(=O)[C@@H](NC(=O)[C@H](CCCN)NC(=O)[C@H](CCCNC(=N)N)NC(=O)[C@H](Cc1ccc(O)cc1)NC(=O)[C@H](CO)NC(=O)[C@H](CC(N)=O)NC(=O)[C@@H](NC(=O)[C@H](Cc1ccccc1)NC(=O)[C@@H](NC(=O)[C@H](C)NC(=O)[C@H](CC(=O)O)NC(=O)[C@H](C)NC(=O)[C@H](Cc1ccc(O)cc1)NC)[C@@H](C)CC)[C@@H](C)O)C(C)C)[C@@H](C)CC)C(=O)N[C@@H](CC(=O)O)C(=O)N[C@@H](CCCNC(=N)N)C(=O)NCCCCCCCC(N)=O) [P-21301 [N-Me-Tyr^1, Orn^12, Abu^15, Orn^21, Nle^27, Asp^28, Amc^30]hGHRH(1-30)NH2] | 2.99 | 1.45 | – | – | – | – | – |
| [NMeY]ADAIFTQSYR[Orn]VL[Abu]QLSAR[Orn]LLQDI[Nle]DR[Ava]-NH2 (peptide, from a related filing, N-terminus assumed; SMILES CCCC[C@H](NC(=O)[C@@H](NC(=O)[C@H](CC(=O)O)NC(=O)[C@H](CCC(N)=O)NC(=O)[C@H](CC(C)C)NC(=O)[C@H](CC(C)C)NC(=O)[C@H](CCCN)NC(=O)[C@H](CCCNC(=N)N)NC(=O)[C@H](C)NC(=O)[C@H](CO)NC(=O)[C@H](CC(C)C)NC(=O)[C@H](CCC(N)=O)NC(=O)[C@H](CC)NC(=O)[C@H](CC(C)C)NC(=O)[C@@H](NC(=O)[C@H](CCCN)NC(=O)[C@H](CCCNC(=N)N)NC(=O)[C@H](Cc1ccc(O)cc1)NC(=O)[C@H](CO)NC(=O)[C@H](CCC(N)=O)NC(=O)[C@@H](NC(=O)[C@H](Cc1ccccc1)NC(=O)[C@@H](NC(=O)[C@H](C)NC(=O)[C@H](CC(=O)O)NC(=O)[C@H](C)NC(=O)[C@H](Cc1ccc(O)cc1)NC)[C@@H](C)CC)[C@@H](C)O)C(C)C)[C@@H](C)CC)C(=O)N[C@@H](CC(=O)O)C(=O)N[C@@H](CCCNC(=N)N)C(=O)NCCCCC(N)=O) [P-22325 [N-Me-Tyr^1, Gln^8, Orn^12, Abu^15, Orn^21, Nle^27, Asp^28, Apa^30]hGHRH(1-30)NH2] | 3.8 | 1.14 | – | – | – | – | – |
| YADAIFTNSYRKVLGQLSARKLLQDIMSRQ (peptide, from a related filing, N-Me-Tyr^1; Abu^2; Orn^12; Abu^15; Orn^21; Nle^27; Gab^30 (in place of Gln^30); C-terminal -NH2) [P-25503 [N-Me-Tyr^1, Abu^2, Orn^12, Abu^15, Orn^21, Nle^27, Gab^30]hGHRH(1-30)NH2] | 1.18 | 3.67 | – | – | – | – | – |
| [Desaminotyrosyl][dA]DAIFTQSYR[Orn]VL[Abu]QLSAR[Orn]LLQDI[Nle]D[dR]-NHMe (SMILES CCCC[C@H](NC(=O)[C@@H](NC(=O)[C@H](CC(=O)O)NC(=O)[C@H](CCC(N)=O)NC(=O)[C@H](CC(C)C)NC(=O)[C@H](CC(C)C)NC(=O)[C@H](CCCN)NC(=O)[C@H](CCCNC(=N)N)NC(=O)[C@H](C)NC(=O)[C@H](CO)NC(=O)[C@H](CC(C)C)NC(=O)[C@H](CCC(N)=O)NC(=O)[C@H](CC)NC(=O)[C@H](CC(C)C)NC(=O)[C@@H](NC(=O)[C@H](CCCN)NC(=O)[C@H](CCCNC(=N)N)NC(=O)[C@H](Cc1ccc(O)cc1)NC(=O)[C@H](CO)NC(=O)[C@H](CCC(N)=O)NC(=O)[C@@H](NC(=O)[C@H](Cc1ccccc1)NC(=O)[C@@H](NC(=O)[C@H](C)NC(=O)[C@H](CC(=O)O)NC(=O)[C@@H](C)NC(=O)CCc1ccc(O)cc1)[C@@H](C)CC)[C@@H](C)O)C(C)C)[C@@H](C)CC)C(=O)N[C@@H](CC(=O)O)C(=O)N[C@H](CCCNC(=N)N)C(=O)NC, also called MR-401) [P-27401 [Dat^1, D-Ala^2, Gln^8, Orn^12, Abu^15, Orn^21, Nle^27, Asp^28, D-Arg^29]hGHRH(1-29)NH-CH3] | – | – | 2.6 | 1.05 | 2.94 hGHRH(1-29)NH2 = 1 | 2.74 | 1.59 |
